doi:10.1101/2023.08.08.552426

Tests used:
[1] = biological target: smORF5 (A0901_04910) (Apilactobacillus kunkeei strain A0901); assay: NMR relaxation
[2] = biological target: smORF7 (A0901_04830) (Apilactobacillus kunkeei strain A0901); assay: NMR relaxation

stoichiometry N [1]	stoichiometry N [2]	Substance
2		smORF5 (A0901_04910) (natural protein)
	2	smORF7 (A0901_04830) (natural protein)
